How the values were obtained:
[1] = substrate: CC1(C)S[C@@H]2[C@H](NC(=O)C(C(=O)O)c3ccccc3)C(=O)N2[C@H]1C(=O)O; experiment: (§1) Ratio of Kcat to Km for Chryseobacterium indologenes 597 metallo-beta-lactamase […] expressed in Escherichia coli DH5alpha by Michaelis-Menten equation
[2] = substrate: C[C@@H](O)[C@H]1C(=O)N2C(C(=O)O)=C(SCCNC=N)C[C@H]12; experiment: as §1
[3] = substrate: CO/N=C(\C(=O)N[C@@H]1C(=O)N2C(C(=O)O)=C(COC(C)=O)CS[C@H]12)c1csc(N)n1; experiment: as §1
[4] = substrate: CC1(C)S[C@@H]2[C@H](NC(=O)Cc3ccccc3)C(=O)N2[C@H]1C(=O)O; experiment: as §1
[5] = substrate: C[C@@H](O)[C@H]1C(=O)N2C(C(=O)O)=C(S[C@@H]3CN[C@H](C(=O)N(C)C)C3)[C@H](C)[C@H]12; experiment: as §1
[6] = substrate: CO/N=C(\C(=O)N[C@@H]1C(=O)N2C(C(=O)O)=C(COC(N)=O)CS[C@H]12)c1ccco1; experiment: (§2) Ratio of Kcat to Km for Chryseobacterium indologenes 597 metallo-beta-lactamase IND-6 expressed in Escherichia coli DH5alpha by Michaelis-Menten equation
[7] = substrate: CC1(C)S[C@@H]2[C@H](NC(=O)[C@H](N)c3ccc(O)cc3)C(=O)N2[C@H]1C(=O)O; experiment: as §2
[8] = substrate: CO/N=C(\C(=O)N[C@@H]1C(=O)N2C(C(=O)[O-])=C(C[N+]3(C)CCCC3)CS[C@H]12)c1csc(N)n1; experiment: as §2
[9] = substrate: CC1(C)S[C@@H]2[C@H](NC(=O)C(C(=O)O)c3ccccc3)C(=O)N2[C@H]1C(=O)O; experiment: as §2
[10] = substrate: CC1=C(C(=O)O)N2C(=O)[C@@H](NC(=O)[C@H](N)c3ccccc3)[C@H]2SC1; experiment: as §2
[11] = substrate: C[C@@H](O)[C@H]1C(=O)N2C(C(=O)O)=C(SCCNC=N)C[C@H]12; experiment: as §2
[12] = substrate: CC(=O)OCC1=C(C(=O)O)N2C(=O)[C@@H](NC(=O)Cc3cccs3)[C@H]2SC1; experiment: as §2
[13] = substrate: CO/N=C(\C(=O)N[C@@H]1C(=O)N2C(C(=O)O)=C(COC(C)=O)CS[C@H]12)c1csc(N)n1; experiment: as §2
[14] = substrate: CC(C)(O/N=C(\C(=O)N[C@@H]1C(=O)N2C(C(=O)[O-])=C(C[n+]3ccccc3)CS[C@H]12)c1csc(N)n1)C(=O)O; experiment: as §2
[15] = substrate: O=C(Cc1cccs1)N[C@@H]1C(=O)N2C(C(=O)[O-])=C(C[n+]3ccccc3)CS[C@H]12; experiment: as §2
[16] = substrate: CC1(C)S[C@@H]2[C@H](NC(=O)Cc3ccccc3)C(=O)N2[C@H]1C(=O)O; experiment: as §2
[17] = substrate: C[C@@H](O)[C@H]1C(=O)N2C(C(=O)O)=C(S[C@@H]3CN[C@H](C(=O)N(C)C)C3)[C@H](C)[C@H]12; experiment: as §2
[18] = substrate: O=C(Cc1cccs1)N[C@@H]1C(=O)N2C(C(=O)O)=C(/C=C/c3ccc([N+](=O)[O-])cc3[N+](=O)[O-])CS[C@H]12; experiment: as §2
[19] = substrate: CO/N=C(\C(=O)N[C@@H]1C(=O)N2C(C(=O)O)=C(COC(N)=O)CS[C@H]12)c1ccco1; experiment: (§3) Activity at Chryseobacterium indologenes 597 metallo-beta-lactamase IND-6 expressed in Escherichia coli DH5alpha by Michaelis-Menten equation
[20] = substrate: CC1(C)S[C@@H]2[C@H](NC(=O)[C@H](N)c3ccc(O)cc3)C(=O)N2[C@H]1C(=O)O; experiment: as §3
[21] = substrate: CO/N=C(\C(=O)N[C@@H]1C(=O)N2C(C(=O)[O-])=C(C[N+]3(C)CCCC3)CS[C@H]12)c1csc(N)n1; experiment: as §3
[22] = substrate: CC1(C)S[C@@H]2[C@H](NC(=O)C(C(=O)O)c3ccccc3)C(=O)N2[C@H]1C(=O)O; experiment: as §3
[23] = substrate: CC1=C(C(=O)O)N2C(=O)[C@@H](NC(=O)[C@H](N)c3ccccc3)[C@H]2SC1; experiment: as §3
[24] = substrate: C[C@@H](O)[C@H]1C(=O)N2C(C(=O)O)=C(SCCNC=N)C[C@H]12; experiment: as §3
[25] = substrate: CC(=O)OCC1=C(C(=O)O)N2C(=O)[C@@H](NC(=O)Cc3cccs3)[C@H]2SC1; experiment: as §3
[26] = substrate: CO/N=C(\C(=O)N[C@@H]1C(=O)N2C(C(=O)O)=C(COC(C)=O)CS[C@H]12)c1csc(N)n1; experiment: as §3
[27] = substrate: CC(C)(O/N=C(\C(=O)N[C@@H]1C(=O)N2C(C(=O)[O-])=C(C[n+]3ccccc3)CS[C@H]12)c1csc(N)n1)C(=O)O; experiment: as §3
[28] = substrate: O=C(Cc1cccs1)N[C@@H]1C(=O)N2C(C(=O)[O-])=C(C[n+]3ccccc3)CS[C@H]12; experiment: as §3
[29] = substrate: CC1(C)S[C@@H]2[C@H](NC(=O)Cc3ccccc3)C(=O)N2[C@H]1C(=O)O; experiment: as §3
[30] = substrate: C[C@@H](O)[C@H]1C(=O)N2C(C(=O)O)=C(S[C@@H]3CN[C@H](C(=O)N(C)C)C3)[C@H](C)[C@H]12; experiment: as §3
[31] = substrate: O=C(Cc1cccs1)N[C@@H]1C(=O)N2C(C(=O)O)=C(/C=C/c3ccc([N+](=O)[O-])cc3[N+](=O)[O-])CS[C@H]12; experiment: as §3

B1: IND-like metallo-beta-lactamase (Chryseobacterium indologenes), Q6JE29 (protein)
chain: MKKRIQFFMVSMMLAPMFNAQVKDFVIEPPIKNNLHIYKTFGVFGGKEYSANSVYLVTKKGVVLFDVPWEKAQYQSLMDTIKKRHNLPVIAVFATHSHDDRAGDLSFFNNKGIKTYATSKTNEFLKKDGKATSTEIIKTGKPYRIGGEEFTVDFLGEGHTADNVVVWFPKYNVLDGGCLVKSNSATDLGYIKEANVEQWPITIDKLKAKYSKATLIIPGHDDWKGGGHVEHTLELLNKK
kcat/Km [1]: 5.3 ×10⁴ /M/s | kcat/Km [2]: 2.4 ×10⁴ /M/s | kcat/Km [3]: 3.1 ×10⁴ /M/s | kcat/Km [4]: 8.4 ×10⁵ /M/s | kcat/Km [5]: 1.5 ×10⁴ /M/s

B2: Metallo-beta-lactamase IND-6 (Chryseobacterium indologenes), Q08I33 (protein)
chain: MKRRIQFFMVSMMLTPLFSAQVKDFVIEPPIKKNLYIYKTFGVFGGKEYSANSVYLVTKTGVVLFDVPWEKAQYQSLMDTIKKRHNLPVVAVFATHSHDDRAGDLSFFNNKGIKTYATPKTNQFLKRDGKATSTELIKPGKPYRFGGEEFVVDFLGEGHTADNVVVWFPKYKVLDGGCLVKSNSATDLGYIKEANLEQWPKTMHKLKTKYSEAVLIIPGHDEWKGGGHVEHTLELLDKK
kcat/Km [6]: 3.3 ×10⁶ /M/s | kcat/Km [7]: 5.6 ×10⁶ /M/s | kcat/Km [8]: 4 ×10³ /M/s | kcat/Km [9]: 7 ×10⁶ /M/s | kcat/Km [10]: 6.3 ×10⁶ /M/s | kcat/Km [11]: 3.8 ×10⁶ /M/s | kcat/Km [12]: 6.9 ×10⁶ /M/s | kcat/Km [13]: 2.4 ×10⁵ /M/s | kcat/Km [14]: 2.7 ×10⁵ /M/s | kcat/Km [15]: 5.4 ×10⁶ /M/s | kcat/Km [16]: 1.5 ×10⁷ /M/s | kcat/Km [17]: 1.7 ×10⁵ /M/s | kcat/Km [18]: 2.7 ×10⁶ /M/s | Km [19]: 23 µM | kcat [19]: 75 s⁻¹ | Km [20]: 85 µM | kcat [20]: 480 s⁻¹ | Km [21]: > 300 µM | kcat [21]: > 1.2 s⁻¹ | Km [22]: 30 µM | kcat [22]: 210 s⁻¹ | Km [23]: 3 µM | kcat [23]: 19 s⁻¹ | Km [24]: 13 µM | kcat [24]: 50 s⁻¹ | Km [25]: 60 µM | kcat [25]: 415 s⁻¹ | Km [26]: 33 µM | kcat [26]: 8 s⁻¹ | Km [27]: 22 µM | kcat [27]: 6 s⁻¹ | Km [28]: 90 µM | kcat [28]: 490 s⁻¹ | Km [29]: 20 µM | kcat [29]: 305 s⁻¹ | Km [30]: 145 µM | kcat [30]: 25 s⁻¹ | Km [31]: 43 µM | kcat [31]: 115 s⁻¹
